From patent publication US9926369B2, “Methods for treating hepatocellular cancer by administering an anti-Ang-2 antibody” (Regeneron Pharmaceuticals, Inc., priority 2009, dated 2018)

Experiments:
[1] = system: PC3 (Human Prostate Cancer Cell Line) tumors; test: PC3 mouse tumor model; assay type: in vivo, NCr nude mice; details: PC3, 2 mg/kg twice per week
Description: Briefly, 5×10^6 PC3 cells in 100 μl of growth factor-reduced Matrigel (BD Biosciences) were injected subcutaneously into the flanks of 6-8 week old male NCr nude mice (Taconic, Hudson, N.Y.). After tumor volumes reached an average of about 200 mm^3, mice were randomized into groups for treatment. […] Tumor volumes were measured twice per week over the course of the experiment and tumor weights were measured upon excision of tumors at the conclusion of the experiment. Averages (mean+/−standard deviation) of tumor weight and growth were calculated for each treatment group. Percent decrease of tumor weight and growth were calculated from comparison to Fc protein measurements.

[2] = system: COLO 205 (Human Colorectal Adenocarcinoma Cell Line) tumors; test: COLO 205 mouse tumor model; assay type: in vivo, mice; details: COLO 205, NCr nude mice, 4 mg/kg intraperitoneal twice per week
Description: Briefly, 2×10^6COLO 205 cells in 100 μl of serum-free medium were injected subcutaneously into the flank of 6-8 week old male NCr nude mice (Taconic, Hudson, N.Y.). After tumor volumes reached an average of about 150 mm^3, mice were randomized into groups for treatment with antibody or Fc protein. Mice in each treatment group were administered an anti-Ang-2 antibody or Fc protein at a concentration of 4 mg/kg via intraperitoneal injection twice per week for approximately two weeks. Tumor volumes were measured twice per week over the course of the experiment and tumor weights were measured upon excision of tumors at the conclusion of the experiment. Averages (mean+/−standard deviation) of tumor weight and growth were calculated for each treatment group. “Avg. Tumor Growth” represents the average growth from the time of treatment initiation (when tumors were approximately 150 mm^3). Percent decrease of tumor weight and growth are calculated from comparison to Fc protein measurements.
A similar experiment was carried out to assess the effect of H1H685P, in particular, on COLO 205 tumor growth. Briefly, 2×10^6 COLO 205 cells in 100 μl of serum-free medium were implanted subcutaneously into the right hind flank of 9-11 week-old male SCID CB17 mice. When the tumors reached ˜125 mm^3, mice were randomized into 5 groups (n=7-8 mice/group) and treated twice per week with Fc protein (15 mg/kg), H1H685P (5 or 25 mg/kg) or Control II (5 or 25 mg/kg) for a period of 19 days. Tumor volumes were measured twice per week over the course of the experiment and tumor weights were measured upon excision of tumors at the end of the experiment. Averages of tumor weight and growth from the beginning of treatment were calculated for each group. Percent decrease of tumor weight and growth are calculated from comparison to the Fc control group.
To determine the effect of combining an anti-Ang-2 antibody with a VEGF inhibitor on the growth of COLO 205 xenografts, 2×10^6 cells were implanted subcutaneously into the right hind flank of 6-8 week-old female SCID mice. When the tumors reached an average volume of ˜350 mm^3, mice were randomized into 4 groups (n=6 mice/group) and treated with: human Fc protein (7.5 mg/kg), H1H685P (5 mg/kg), VEGF Trap (see U.S. Pat. No. 7,087,411) (2.5 mg/kg) or the combination of H1H685P+VEGF Trap. Mice were given a total of 3 doses over 10 days of treatment. Tumor volumes were measured twice per week over the course of the experiment. Averages of tumor growth from the start of treatment (mean+/−standard deviation) were calculated for each treatment group. Percent decrease of tumor growth was calculated from comparison to the Fc control group.
To test the effect of H1H685P in combination with a chemotherapeutic agent on tumor growth, 2.5×10^6 COLO 205 tumor cells were implanted subcutaneously into the right hind flank of 8-9 week-old male SCID mice. When the tumors reached an average volume of ˜150 mm^3 (day 17 after implantation), mice were randomized into 4 groups (n=5 mice/group) and treated as follows: the first group was treated sc with 15 mg/kg hFc and intraperitoneally (ip) with 5-FU vehicle; the second group was treated sc with 15 mg/kg of H1H685P; the third group was treated ip with 75 mg/kg of 5-FU; the fourth group was treated with the combination of 15 mg/kg H1H685P sc plus 75 mg/kg 5-FU ip. Mice received a total of three treatments, administered every 3-4 days. Tumor volumes were measured twice per week over the course of the experiment. Average (mean+/−standard deviation) tumor growth from the beginning of treatment until day 38 was calculated for each group. Percent decrease of tumor growth was calculated from comparison to the control group.

[3] = system: Tie-2 phosphorylation (Ang-2-mediated) in HUVECs; test: Inhibition of Ang-2-mediated Tie-2 phosphorylation in FOXO1-adenovirus infected HUVECs; assay type: cell-based, human; details: antibody 0.5 μg/ml
Description: Further, the inventors have shown that infection of HUVECs with an adenovirus encoding FOXO1 results in expression and secretion of Ang-2, followed by activation of Tie-2 phosphorylation (Daly et al. 2006 PNAS 103:15491).
Anti-Ang-2 antibodies were tested for their ability to inhibit Tie-2 phosphorylation. Briefly, 7×10^5 HUVECs (Vec Technologies, Rensselaer, N.Y.) were plated in 6 cm cell culture dishes in 3.5 ml of MCDB131 Complete medium (Vec Technologies, Rensselaer, N.Y.). The following day, the cells were washed with Opti-MEM (Invitrogen Corp., Carlsbad, Calif.) and fed with 2 ml of Opti-MEM. […] Cells were then washed with MCDB131 and fed with 2 ml of MCDB131 containing anti-Ang-2 antibodies at a concentration of 0.5 μg/ml. At twenty hours post infection, cells were lysed and subjected to Tie-2 immunoprecipitation as described by Daly et al., Proc. Natl. Acad. Sci. USA 103:15491-15496 (2006). Immunoglobulin was collected on protein A/G beads (Santa Cruz Biotechnology, Santa Cruz, Calif.) for one hour. Beads were washed with cold lysis buffer and resuspended in SDS sample buffer for analysis by western blot with antibodies specific for phosphotyrosine (Millipore, Billerica, Mass.) or Tie-2. Signals were detected using HRP-conjugated secondary antibodies and ECL reagents (GE Healthcare, Piscataway, N.J.). X-Ray films were scanned and the phospho-Tie-2 and Tie-2 signals were quantified using ImageJ software. The phospho-Tie-2/Tie-2 ratios were used to determine the % inhibition for each anti-Ang-2 antibody (i.e. Percent inhibition=Reduction in phospho-Tie-2/Tie-2 as compared to control).

B1: H1M749N: anti-Ang-2 antibody, HCVR/LCVR SEQ ID NOs 314/322 (antibody, V domains shown)
VH: QVQLVESGGGVVQPGRSLRLSCAASGFTFSSYGMHWVRQAPGKGLEWVAVIWYDEFNKYYADSVKGRFTISRDNSKNTLYLQMNSLRAEDTAVYYCARERESGYSYGFDYWGQGTLVTVSS
VL: EIVMTQSPATLSVSPGERATLSCRAGQSVSSNLAWYQQKPGQAPRLLIYGASTRATGIPARFSGSGSGTEFTLTISSLQSEDFAVYYCQQYNNWWTFGQGTKVEIK
How did the “% Decrease in Tumor Growth” value [1] turn out when B1 was run?
Its value is 54%.

And the “% Decrease in Tumor Weight” value [1]?
Its value is 31%.

And the “Avg Tumor Growth” value [1]?
The value was 220 ± 261 mm^3.

What about the “Avg Tumor Weight” value [1] of the same molecule?
Its value is 0.383 ± 0.275 g.

What about the “% Decrease in Tumor Growth” value [2] of the same molecule?
Its value is 39%.

What about the “% Decrease in Tumor Weight” value [2] of the same molecule?
Its value is 29%.

And the “Avg Tumor Growth” value [2]?
The value was 449 ± 169 mm^3.

And the “Avg Tumor Weight” value ([2]; approximately two weeks)?
Its value is 0.603 ± 0.142 g.

And the “Inhibition of Tie-2 phosphorylation” value [3]?
Its value is “++ (50-75%)”.
